Assay results from patent publication US20240182596A1 (TUBULIS, published 2024).
One block for each binder: values may come before it.

Legend:
[1] = biological target: T1, recombinant human FcγRI (FcγR-SmBiT, Lumit assay) (human, UniProt P12314 16-292); test: Lumit FcγRI Binding Immunoassay (Promega), competition with Tracer-LgBiT for FcγRI-SmBiT, n=1
T1 construct: Kit reagent (Promega); also called FcγRI (CD64); not shown: SmBiT label of the kit

[2] = biological target: T2, recombinant hexameric C1q complement protein (human) (human, UniProt P02745 23-245; P02746 28-253; P02747 29-245); test: HTRF Human C1q Binding Kit (Cisbio), HTRF ratio at 70 nM antibody with the diluent-only background subtracted
T2 construct: also called complement factor C1q

FcγRIIa (CD32) (H131) = biological target: T3, FcγRIIa (CD32) (H131) (Fused to the SmBiT luciferase fragment (Promega Lumit reagent), not carried in the letters); test: Lumit FcγRIIa (H131) Binding Immunoassay (Promega), left panel FcγRIIa (CD32) (H131), competition with Tracer-LgBiT, n=1
T3 construct: m20 joins both polymorphic variants; also called H131 variant of m20; not shown: SmBiT tag (and any linker or purification tag) of Promega's FcγR-SmBiT fusion
T3 chain: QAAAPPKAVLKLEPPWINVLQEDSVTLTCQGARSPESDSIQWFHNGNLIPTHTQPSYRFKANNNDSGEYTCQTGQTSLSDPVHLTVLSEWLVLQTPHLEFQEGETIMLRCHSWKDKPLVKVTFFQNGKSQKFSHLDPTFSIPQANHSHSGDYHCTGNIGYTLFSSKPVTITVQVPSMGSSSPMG

FcγRIIIa (CD16) (V158) = biological target: T4, FcγRIIIa (CD16) (V158) (Homo sapiens, UniProt P08637); test: Lumit FcγRIIIa (V158) Binding Immunoassay (Promega), left panel FcγRIIIa (CD16) (V158), competition with Tracer-LgBiT, n=1
T4 construct: m21 joins both polymorphic variants; also called V158 variant of m21

[3] = biological target: T5, recombinant human FcRn (FcγRn-SmBiT, Lumit assay) (human, UniProt P55899 24-297; P61769 21-119); test: Lumit FcRn Binding Immunoassay (Promega), competition with Tracer-LgBiT for FcRn-SmBiT, n=1
T5 construct: Kit reagent (Promega); not shown: SmBiT label of the kit

[4] = biological target: T6, human Napi2b-mCherry on HEK293 cells (human, UniProt O95436 1-690); test: flow cytometry on HEK293 cells stably expressing human full-length NaPi2b-mCherry, Alexa-dye anti-human IgG H+L secondary antibody, MFI ratio, one-site specific binding fit; the Kd table prints no unit, the concentration axis is in nM
T6 construct: also called Napi2b (SLC34A2); HEK293 cells overexpressing Napi2b
T6 sequence: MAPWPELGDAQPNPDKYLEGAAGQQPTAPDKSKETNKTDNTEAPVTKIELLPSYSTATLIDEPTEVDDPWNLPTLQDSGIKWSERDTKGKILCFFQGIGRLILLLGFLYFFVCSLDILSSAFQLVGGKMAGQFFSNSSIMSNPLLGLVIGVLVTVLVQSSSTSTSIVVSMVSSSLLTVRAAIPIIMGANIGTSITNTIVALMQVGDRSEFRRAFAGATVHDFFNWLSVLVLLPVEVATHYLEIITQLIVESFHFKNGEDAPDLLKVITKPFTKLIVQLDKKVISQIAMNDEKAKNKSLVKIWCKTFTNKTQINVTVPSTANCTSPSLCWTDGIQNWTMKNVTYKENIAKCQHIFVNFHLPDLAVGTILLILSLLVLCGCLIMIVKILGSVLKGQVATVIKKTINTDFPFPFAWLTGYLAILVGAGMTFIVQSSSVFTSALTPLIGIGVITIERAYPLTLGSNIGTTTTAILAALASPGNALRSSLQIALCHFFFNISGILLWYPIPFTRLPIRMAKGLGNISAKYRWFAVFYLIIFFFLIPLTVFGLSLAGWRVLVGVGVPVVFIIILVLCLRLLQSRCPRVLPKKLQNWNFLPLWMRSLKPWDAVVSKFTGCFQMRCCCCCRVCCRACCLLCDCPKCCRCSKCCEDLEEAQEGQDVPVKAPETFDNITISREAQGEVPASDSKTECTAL

[5] = biological target: T7, HEK293 cyno-NaPi2B-mCherry (Macaca fascicularis, UniProt A0A2K5UHY1); test: flow cytometry on HEK293 cells stably expressing cynomolgus full-length NaPi2b-mCherry, Alexa-dye anti-human IgG H+L secondary antibody, MFI ratio, one-site specific binding fit; the Kd table prints no unit, the concentration axis is in nM
T7 construct: full-length mCherry fusion stably expressed on HEK293 cells; also called cynomolgus full-length NaPi2b-mCherry on HEK293 cells
T7 sequence (target on cells): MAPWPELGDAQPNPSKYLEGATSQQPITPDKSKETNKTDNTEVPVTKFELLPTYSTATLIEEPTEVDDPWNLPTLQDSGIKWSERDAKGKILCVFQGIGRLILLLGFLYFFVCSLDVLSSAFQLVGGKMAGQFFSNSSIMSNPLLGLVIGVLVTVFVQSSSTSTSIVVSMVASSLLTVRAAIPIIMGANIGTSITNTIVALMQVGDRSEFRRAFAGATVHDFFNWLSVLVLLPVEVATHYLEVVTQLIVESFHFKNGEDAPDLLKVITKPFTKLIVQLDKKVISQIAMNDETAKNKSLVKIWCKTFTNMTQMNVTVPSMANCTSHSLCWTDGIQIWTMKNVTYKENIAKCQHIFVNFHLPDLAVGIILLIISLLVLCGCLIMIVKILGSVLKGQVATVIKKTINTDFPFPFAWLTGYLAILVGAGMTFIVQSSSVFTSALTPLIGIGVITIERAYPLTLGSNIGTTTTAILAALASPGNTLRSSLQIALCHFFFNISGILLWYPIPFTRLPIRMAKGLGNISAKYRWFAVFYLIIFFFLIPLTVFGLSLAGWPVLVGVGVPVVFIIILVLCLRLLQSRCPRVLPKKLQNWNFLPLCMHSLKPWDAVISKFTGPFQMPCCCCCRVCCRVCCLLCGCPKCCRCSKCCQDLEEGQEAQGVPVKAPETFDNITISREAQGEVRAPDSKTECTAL

[6] = biological target: T8, purified recombinant human Napi2b antigen consisting of Napi2b-extracellular-loop2 expressed as … (human, UniProt O95436 234-362, limits assumed); test: ELISA, coated Napi2b-extracellular-loop2-Fc-6-His, apparent KD from one-site fit
T8 construct: Expressed in Expi-HEK293 cells; also called immobilized human NaPi2B; not shown: Fc part; 6-His tag
T8 sequence: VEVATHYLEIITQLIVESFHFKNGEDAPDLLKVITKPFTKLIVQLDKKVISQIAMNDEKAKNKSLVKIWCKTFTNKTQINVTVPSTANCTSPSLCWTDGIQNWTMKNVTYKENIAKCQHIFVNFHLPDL

[7] = biological target: T8, purified recombinant human Napi2b …; test: ELISA on the isolated immobilized protein; table column Binding KD (nmol/L), ELISA
[8] = biological target: T9, HEK293 rat-NaPi2B-mCherry (Rattus norvegicus, UniProt Q9JJ09); test: flow cytometry on HEK293 cells stably expressing rat full-length NaPi2b-mCherry, Alexa-dye anti-human IgG H+L secondary antibody, MFI ratio, one-site specific binding fit; the Kd table prints no unit, the concentration axis is in nM
T9 construct: full-length mCherry fusion stably expressed on HEK293 cells; also called rat full-length NaPi2b-mCherry on HEK293 cells
T9 sequence (target on cells, looked up): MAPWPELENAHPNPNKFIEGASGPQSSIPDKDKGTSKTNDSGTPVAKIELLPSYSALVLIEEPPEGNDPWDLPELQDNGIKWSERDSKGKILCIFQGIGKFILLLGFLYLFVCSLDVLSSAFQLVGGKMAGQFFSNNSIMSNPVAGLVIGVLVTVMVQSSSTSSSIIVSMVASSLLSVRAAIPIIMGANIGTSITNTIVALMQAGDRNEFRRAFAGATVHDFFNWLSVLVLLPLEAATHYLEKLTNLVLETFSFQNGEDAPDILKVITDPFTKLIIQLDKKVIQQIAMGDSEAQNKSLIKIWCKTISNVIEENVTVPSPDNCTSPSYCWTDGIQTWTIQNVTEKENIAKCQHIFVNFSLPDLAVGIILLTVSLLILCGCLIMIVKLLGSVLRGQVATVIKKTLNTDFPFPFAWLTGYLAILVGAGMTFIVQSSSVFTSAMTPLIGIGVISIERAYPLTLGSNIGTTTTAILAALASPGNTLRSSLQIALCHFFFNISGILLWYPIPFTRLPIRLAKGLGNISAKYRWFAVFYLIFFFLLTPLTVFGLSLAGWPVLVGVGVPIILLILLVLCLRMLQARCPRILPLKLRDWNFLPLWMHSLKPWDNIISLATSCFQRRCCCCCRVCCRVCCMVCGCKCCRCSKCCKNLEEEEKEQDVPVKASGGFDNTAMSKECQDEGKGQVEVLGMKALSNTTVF

[9] = biological target: T8, purified recombinant human Napi2b …; test: ELISA on immobilized recombinant human Napi2b extracellular loop 2-Fc-6-His, HRP anti-human kappa detection
[10] = biological target: T6, human Napi2b-mCherry on HEK293 cells; test: flow cytometry on HEK293 cells stably expressing human full-length NaPi2b-mCherry, Alexa-dye anti-human IgG H+L secondary antibody, MFI ratio, one-site specific binding fit; the Kd table prints no unit, the concentration axis is in nM; second experiment on human cells, run beside the rat cells of FIG. 3D
[11] = biological target: T10, human NaPi2b on NaPi2b-positive cell lines OVCAR-3 and HCC-78 (human, UniProt O95436 1-690); test: flow cytometry on OVCAR-3 cells; table column Binding KD (nmol/L), FACS (OVCAR-3)
T10 construct: Endogenous protein
T10 sequence: T6 sequence

IC50 (read off the curve) [1]: ~0.02 µg/mL
binding result [2]: binds
IC50 (read off the curve) (FcγRIIa (CD32) (H131)): ~1 µg/mL
IC50 (read off the curve) (FcγRIIIa (CD16) (V158)): ~2 µg/mL
IC50 (read off the curve) [3]: ~3 µg/mL
B1: Fc-wildtype AV25 (AV25 HC-wt) (antibody)
heavy: not shown
light: DIQMTQSPSSLSASVGDRVTITCSASQDIGNFLNWYQQKPGKTVKVLIYYASSLYSGVPSRFSGSGSGTDYTLTISSLQPEDFATYYCQQYSKLPLTFGQGTKLELKRTVAAPSVFIFPPSDEQLKSGTASVVCLLNNFYPREAKVQWKVDNALQSGNSQESVTEQDSKDSTYSLSSTLTLSKADYEKHKVYACEVTHQGLSSPVTKSFNRGEC
notes: IgG1 with wild-type Fc (L234, L235); also called AV25-wt

Kd [4]: 5.43 nM
Kd [5]: 4.48 nM
Kd [6]: 0.0221 µg/mL
Kd [7]: 0.147 nM
Kd [8]: 6.88 nM
EC50 (read off the curve) [9]: ~0.02 µg/mL
Kd [10]: 2.85 nM
Kd [11]: 10.8 nM
B2: parental mAb (parental anti-NaPi2b antibody) (antibody, human IgG1, kappa, L234A L235A, V domains shown)
VH: EVQLVQSGAEVVKPGASVKMSCKASGYTFTGYNIHWVKQAPGQGLEWIGAIYPGNGDTSYKQKFRGRATLTADTSTSTVYMELSSLRSEDSAVYYCARGETARATFAYWGQGTLVTVSS
VL: DIQMTQSPSSLSASVGDRVTITCSASQDIGNFLNWYQQKPGKTVKVLIYYTSSLYSGVPSRFSGSGSGTDYTLTISSLQPEDFATYYCQQYSKLPLTFGQGTKLELKR
notes: also called parental antibody
